Source: the DeepSol protein solubility set

assay: soluble on expression in E. coli; label from the status in PepcDB or PDB records

Soluble on expression in E. coli, not soluble:
MGSDKIHHHHHHMFHPIEEALDALKKGEVIIVVDDEDRENEGDFVALAEHATPEVINFMATHGRGLICTPLSEEIADRLDLHPMVEHNTDSHHTAFTVSIDHRETKTGISAQERSFTVQALLDSKSVPSDFQRPGHIFPLIAKKGGVLKRAGHTEAAVDLAEACGSPGAGVICEIMNEDGTMARVPELIEIAKKHQLKMITIKDLIQYRYNLTTLVEREVDITLPTDFGTFKVYGYTNEVDGKEHVAFVMGDVPFGEEPVLVRVHSECLTGDVFGSHRCDCGPQLHAALNQIAAEGRGVLLYLRQEGRGIGLINKLKAYKLQEQGYDTVEANEALGFLPDLRNYGIGAQILRDLGVRNMKLLTNNPRKIAGLEGYGLSISERVPLQMEAKEHNKKYLQTKMNKLGHLLHF
MGSDKIHHHHHHMFKIDRLRFGTAGIPISTPKPSTIAGIERVRELGLDAMELEFVRGINIKPELAKKIKYVAEKNDIVLTAHAPYYINLNAKEKEKVEASKRRIIQSAERLYEAGGWSVVFHAGYYLKQPKESVYQKILSALKEIQKELMDKGIKVWLRPELTGKPTQFGDLKELVKLSQELELVLPAIDFAHAHARNKGKCNTEEEWREMLALIENELGREALDNMHIHISGIEYGEKGEKRHLNLEESDLKWEDLLKVLKEFRVKGVIISESPNIEGDAILMKKKWEELKI
MGSDKIHHHHHHMFKTIHPLSVARHGKLRLKPVSDYRFAAQEAVIGLVGAEIHKAIHAFPIAFLRSAHAGGTSCQMVGLLSVTPGQNLLVSPDGRWLGDYIPAALRAYPFVLARSQEDADTRLPCLDEDCGLLSESEGQPLFSEDGQLSDFSRRIIDFLTATERNREATQKGVDVLEKAQLFTPWSLQVVIQKQTKAIEGFHVIDETKLNQLDDETWLALRRAGVLPLVYGHLLSLNRTDLLGQLSGLQAQLAQQLTARPKLDDMLDFGDESILQF
MGSDKIHHHHHHMFNNHEIDTILSTLRMEADPSLHPLFEQFEKFYEEKLWFQLSESLTKFFDDAKSTPLRLRLYDNFVSKFYDKINQLSVVKYLLASLKDSKDFDESLKYLDDLKAQFQELDSKKQRNNGSKDHGDGILLIDSEIARTYLLKNDLVKARDLLDDLEKTLDKKDSIPLRITNSFYSTNSQYFKFKNDFNSFYYTSLLYLSTLEPSTSITLAERQQLAYDLSISALLGDKIYNFGELLHHPIMETIVNDSNYDWLFQLLNALTVGDFDKFDSLIKVQISKIPILAQHESFLRQKICLMTLIETVFVKNIRMLSFEDISKATHLPKDNVEHLVMRAISLGLLKGSIDQVNELVTISWVQPRIISGDQITKMKDRLVEWNDQVEKLGKKMEARGQSIWV
MGSDKIHHHHHHMFRRHGIIAFSSNYELYADMSNRVMTTLEELSPRCEIYSIDEAFCDLTGVRNCRDLTDFGREIRETVLRRTHLTIGVGIAQTKTLAKLANHAAKQWQRQTGGVVDLSNLERQRKLMALLPVDEVWGVGRRISKKLEAMGIKTVLQLADTDIRFIRKHFNVVLERTVRELRGEPCLGLEEFAPVKQEIVCSRSFGGRITEYHEMRQAICSYASRAAEKLRGEHQYCRFISAFVKTSPFALNEPYYGNSASVKLLTPTQDSRDIITAATKCLDAIWRDGHRYQKAGVMLGDFYSQGVAQLNLFDDNAPRKGSEKLMEVLDHLNAKGGRGTLYFAGQGIQTAWQMKREMLSPRYTTRFCDLLKVR
MGSDKIHHHHHHMFSKIEFKNFMSFSNLTFDLLNRGKCKDIIAIYGENGSGKTNIVEAFKLLVLSLQSMESLNENTRLQSLLKEQTNKEENQKTNFGDISEILDKISFFTTFKGIAKNTHRIASEGNTILKYYFNIEKDNGYYLLEYNENNELVKEELVFKIKSNKGVHFSITNIDGLSQSLNKTIFKNTIFKDLTEQIEKYWGKHTFLSIFNNYCLEVNEEFINEQVSINFQKVVDEFDKIFIWSGNFRGPFHSTELLLKDISKGKIDKSEKEKLSYTEEIIYKYFSALYIDIKDVKYKQDAQGQEIKYELMIRKNIGGDLLDVPISLESQGTKNLLDLLKVFNNVLDGKICIVDEIDSGIHDLLMNSILNDLKGSVNGQLIFTTHDTTLLKELSPSSAYFLNVDIKGNKVIISGNEADKKIGVNNNLEKLYLSGFFGAVPDPLDIDFSDLFLDHNLSED
MGSDKIHHHHHHMGGAALPDNGWPADRIDTESAHSARIYDYIIGGKDYYPADKEAGDAMSREWPALPVHMRANRDWMNRAVAHLAKEAGIRQFLDIGTGIPTSPNLHEIAQSVAPESRVVYVDNDPIVLTLSQGLLASTPEGRTAYVEADMLDPASILDAPELRDTLDLTRPVALTVIAIVHFVLDEDDAVGIVRRLLEPLPSGSYLAMSIGTAEFAPQEVGRVAREYAARNMPMRLRTHAEAEEFFEGLELVEPGIVQVHKWHPDAATADGIRDEDIAMYGAVARKP
MGSDKIHHHHHHMGIYRTQLPQLDGGVFLTDGGIETTLIFHEGFELPYFAAFELLKTPQGRDALTHYFVTYVKLAGLFDTGFILESPTWRASSDWGALLGYTKETLAQANREAIALLEVIREAHSGRLPVVVSGCIGPRFDGYLPDKSMTAEDARHYHSIQIETLASTSADMICALTLNRVEEAIGIVEAAREAAMPVVISFTLETDGRLPTGQSLGDAVVQVDEATAGYAAYFMINCAHPSHLETVPQDAPWLARVKGFRANASSLSHAELNDATTLDDGDPHQLGQQYASLMSTRLKGLNVLGGCCGTDHRHLEQIAKACIKPR
MGSDKIHHHHHHMGLEQDDEGGARRACVIVIGNQKGGSGKSTVAMHLVVSLARAGLRTGSIDLDAGQATLTRYLENRRAFAEKRGLDLPSPEHVPMVPGTSLEADIRRLEHSMLAFHEEVDVVVIDTPGSDTALNRAAHALADVLITPLNDSFIDLDVMARIDGDSMTITGPSPYAAAVWEAKQARARRDGTSMRWIVMRNRLSHLDARNKRDMEDALNDLSRRIGFSVVPGLGERVIYRELFLNGLTLLDLKDKGTGVDISMSHVAARQELRALLAAIGMPKSIGL
MGSDKIHHHHHHMGLLTKGSPLTWAETVPHIDYIKKHGIAQFINLYHRLKSRHGDQLKWGDEIEYTIVKFDDANKKVRVSCKAEELLNKLQAEEQVNAMLGTANRFLWRPEFGSYMIEGTPGMPYGGLIACFNIVEANMKLRRQDETCLSISFPSLGVPGFTFPEVAADRKNDDAANSVFWPEQAVFLGHPRFKNLTKNIKGRRGSKVAINVPIFKDTNTPSPFVEDLSALGGPDDTRDAKPDHIYMDHMGFGMGCCCLQVTFQAVNVDEARWLYDQLTPITPILLALSAATPIFRGKLSNVDSRWDIISASVDDRTPEERGLEPLKNSKWVIDKSRYDSTDCYIYPCSVGYNDIPLQYDETIYKQLIDGNIDEPLAKHIAHMFIRDPHQVFRERIEQDDEKSSEHFETIQSSNWMNMRFKPPPPDAPEIGWRVEFRPTEVQLTDFENAAYCCFVVLLTRMMISFRLTYLMPISMVTENMKRAQQKDAVLNQKFLFRKGLAECKSAPENLKGSEKCGPPSQDIEEMSIDEIINGKKNGFPGLISLIRQFLDSADVDVDTRCTISQYLNFISKRATGEINTLAHWTRGFVQSHPAYKHDSDVNDNIVYDLLKKMDAISNGEDHCEKLLGCYRSKTDHAISAAVRKAEEHMIVSSQKRAH
MGSDKIHHHHHHMGLNAYIQGFNSLESIDRAPGYFKYHHHSVADHCFRTAELAQMMGDIEEVHGNKKINWKALYEKSLNHDYTERFIGDIKTPVKYATPQLRKMIGDVEETMTTKFIKEEIPKEFQEIYTRRLSEGKDDTLEGKILSVCDKLDLLYEAYGEIELGNPNPVYMQMFKESLETIKKFDDLVCVQYFIKKILPDLFKGDFAGKDKMQRIAFSILLLGDDE
MGSDKIHHHHHHMGQRIIIDPVTRIEGHAKISIHLDDHGDVAETRFHVTEFRGFERFCIGRPFWEMPGITARICGICPVSHLLASARAGDGILAVLIPPAAEKLRRLMNLAQIIQSHALSFFHLSGPDLMLGFDSDPAQRNIFGLIAADPDVARNGIRLRQFGQEVIEMLGGRKIHPAWAVPGGVRSGLSASSRDHIRAKLPEMLTIACDALGRLKQLSAKYQREIETFGVFPSLYLGMVGPGGRWMHYGGKLRVIDHTGNILIDELDPIDYRDVIGEAVEPWSYLKFPYIRALGYPQGMYRVGPLARINICTTMGAERADAELRELRQAVGPVIHGSFYYHHARLIEIIAALERMEVLVEDDDLLSTELRADAGVNRHEAVGVSEAPRGTLFHHYRVDEKGLITDVNLIIATGQNNLAINRTVGQIAQSYIRHGQFDEGILNRIEAGVRAYDPCLSCSTHAVGQMAMEVDLYNAQGELINRLSR
MGSDKIHHHHHHMGQTTFSRQKDGQPDTAYHDSETTYHYSETTYNYAYLDESTKGMIRRAILKAIAIPGHQVPFGSREMPMPYGWGTGGIQITASIIGPNDTLKVIDQGSDDTTNAVSIRAFFRKVTNVPTTEKTSEATLIQTRHRIPETPLKEDQILVFQVPIPEPLRFIEPRETETCKMHALEEYGVMQVKLYEDIARFGHIATTYAYPVKVNHRYVMDPSPIPKFDNPKMDMMPALQLFGAGREKRVYAVPPYTVVESLDFDDHPFTIQQWDKPCELCGARDSFLDEVVMDDDGTRMFVCSDTDYCQLRQSQGEKTS
MGSDKIHHHHHHMGTKKNFVIDTNVILHDYNCLKNFQENDIHLPLVVLEELDKFKKGNEQINFNAREFVRELDLLTSDELFSQGVSLGEGMGRLFVVPGNVDAPKVHESFPVKKPDHLILAAVEYLAAKYPKTPAILVTKDVNLRMKARSIGITSEDYITDKVSNVDIFEKSNEIFENVDPALIDRIYSSKEGIDLSEFDFKDVIHPNECFVLKSDRNSVLARYNPFTHSICRVTKGRNYGIEPRNAEQSFAFEILNDPNVKLVALTGKAGTGKTLLALAAALGKLTDYKQVLLARPVVALSNKDIGFLPGDAQEKVAPYMQPLFDNLNVIKRQFAANSTEVKRIEDMQKSEQLVIEALAFIRGRSLSEMYCIIDEAQNLTPNEIKTIITRAGEGTKMVFTGDIQQIDQPYLDSQSNGLVYMIDRMKDQNIFAHVNLVKGERSQLSELASNLL
MGSDKIHHHHHHMGVKFTLMGTTAGLGVPAFHCNCIACREARADPFWARTRSGAVLETGKENILIDASPDLSKQLLRERIQSVDYLFVTHWHYDHFGGIGDLEYYVKLERKRPVALFLPPSAVDDFAKAYPFLEEVFVIEPWEFGKSYAFEGIELTVLPARHSIETGGILLAGAKRAAYFTDTSGLPAPTARQLQGVDTLICDATFNGANWFPHSHMNWQEAIALGESIRAQHTVLTHLAMHYSTPITAAQLQEKLKDYAQVSLAYDGMVLTI
MGSDKIHHHHHHMHILFLTHYFPPEVNAPASRTYENARRWVRDGHHVTVITCAPNHPKGVIYPGYRNRWCQQEDLDGIRVLRVKTYLSANKGFAKRIANYLSYMLSSTVFSCLVRDIDVVVSTSPQFFCGLAGYFVSRARSAPWVVEIRDLWPESIIAVGAIRNRTVIDLLEGLETFMYRRADHVVAVTDAFKRHIAGRGVGRDRISVIKNGADLERFTSGPRENSFRREHGLEGKFVVSYVGTHGMAHGLNTIFETAEAMRSCEDIVFLLVGDGAEREPLLARKAELGLTNVLMLPQQPKERMPEIINASDACMVLLKKTDLFKTVIPSKIFEAMAMERPIILGVEGESREIVEEGCCGLCIEPENAAELADAIRRLRDDGKLADELGQNGRRFVSAVFNREVLARRYLETLSSMVPLPASTIGVIGKELP
